# Data reported in patent publication US20200362033A1.
# Molecular target: human CD147 endogenously expressed on human cancer cell lines (human), P35613
# Test: cell-based or functional assay
row,Binder,"ratio of the phosphorylated p38MAPK signal to the detected p38MAPK signal, HepG2 cells, 10 ug/ml, 15 minutes (fold of the human IgG treated group)"
1,#101H1L2hIgG2 (antibody) heavy: EVQLVESGGGLVQPGRSLRLSCAASGFTFSDYYMAWVRQAPGKGLEWVATISYDGSNTYYRDSVKGRFTISRDNSKSTLYLQMNSLRAGDTAVYYCARFYNNYYFDYWGQGTLVTVSSASTKGPSVFPLAPCSRSTSESTAALGCLVKDYFPEPVTVSWNSGALTSGVHTFPAVLQSSGLYSLSSVVTVPSSNFGTQTYTCNVDHKPSNTKVDKTVERKCCVECPPCPAPPVAGPSVFLFPPKPKDTLMISRTPEVTCVVVDVSHEDPEVQFNWYVDGVEVHNAKTKPREEQFNSTFRVVSVLTVVHQDWLNGKEYKCKVSNKGLPAPIEKTISKTKGQPREPQVYTLPPSREEMTKNQVSLTCLVKGFYPSDIAVEWESNGQPENNYKTTPPMLDSDGSFFLYSKLTVDKSRWQQGNVFSCSVMHEALHNHYTQKSLSLSPGK light: DIQMTQSPSSLSASVGDRVTINCKASQNLYKNLAWYQQKPGKAPKLLIDNANSLQTGIPSRFSGSGSGTDFTLTISSLQPEDFATYFCQQYYSGSYTFGQGTKVEIKRTVAAPSVFIFPPSDEQLKSGTASVVCLLNNFYPREAKVQWKVDNALQSGNSQESVTEQDSKDSTYSLSSTLTLSKADYEKHKVYACEVTHQGLSSPVTKSFNRGEC,> 2
2,#84H1L2hIgG2 (antibody) heavy: EVQLVESGGGLVQPGGSLRLSCAASGFTFSNYYMAWVRQAPGKGLEWVSTITTSGSRPYYADSVKGRFTISRDNSKNTLYLQMNSLRAEDTAVYYCARHIYYYDGYPFAYWGQGTLVTVSSASTKGPSVFPLAPCSRSTSESTAALGCLVKDYFPEPVTVSWNSGALTSGVHTFPAVLQSSGLYSLSSVVTVPSSNFGTQTYTCNVDHKPSNTKVDKTVERKCCVECPPCPAPPVAGPSVFLFPPKPKDTLMISRTPEVTCVVVDVSHEDPEVQFNWYVDGVEVHNAKTKPREEQFNSTFRVVSVLTVVHQDWLNGKEYKCKVSNKGLPAPIEKTISKTKGQPREPQVYTLPPSREEMTKNQVSLTCLVKGFYPSDIAVEWESNGQPENNYKTTPPMLDSDGSFFLYSKLTVDKSRWQQGNVFSCSVMHEALHNHYTQKSLSLSPGK light: DVQMTQSPSSLSASVGDRVTITCKASKSISNNLAWYQQKPGKANKLLIHSGSTLQSGTPSRFSGSGSGTDFTLTISSLQPEDFATYYCQQYNEYPLTFGQGTKVEIKRTVAAPSVFIFPPSDEQLKSGTASVVCLLNNFYPREAKVQWKVDNALQSGNSQESVTEQDSKDSTYSLSSTLTLSKADYEKHKVYACEVTHQGLSSPVTKSFNRGEC,> 2
3,#131H2L2hIgG2 (antibody) heavy: QVQLVESGGGVVQPGRSLRLSCAASGFTFNNYWMTWVRQAPGKGLEWVASITKAGGSTYYADSVKGRFTISRDNSKSTLYLQMNSLRAEGTAVYYCTRELGEFYVMDAWGQGTTVTVSSASTKGPSVFPLAPCSRSTSESTAALGCLVKDYFPEPVTVSWNSGALTSGVHTFPAVLQSSGLYSLSSVVTVPSSNFGTQTYTCNVDHKPSNTKVDKTVERKCCVECPPCPAPPVAGPSVFLFPPKPKDTLMISRTPEVTCVVVDVSHEDPEVQFNWYVDGVEVHNAKTKPREEQFNSTFRVVSVLTVVHQDWLNGKEYKCKVSNKGLPAPIEKTISKTKGQPREPQVYTLPPSREEMTKNQVSLTCLVKGFYPSDIAVEWESNGQPENNYKTTPPMLDSDGSFFLYSKLTVDKSRWQQGNVFSCSVMHEALHNHYTQKSLSLSPGK light: DVQMTQSPSSLSASVGDRVTITCKASKSINTYLAWYQEKPGKTNKLLIYSGSTLQSGTPSRFSGSGSGTDFTLTISSLQPEDFATYYCQQHNEYPFTFGQGTKLEIKRTVAAPSVFIFPPSDEQLKSGTASVVCLLNNFYPREAKVQWKVDNALQSGNSQESVTEQDSKDSTYSLSSTLTLSKADYEKHKVYACEVTHQGLSSPVTKSFNRGEC,> 2
